The target of experiment [1] is T1, human CLEC12a expressed on transiently transfected HEK 293 cells (human, UniProt Q5QGZ9 1-265).
T1 construct: also called CLL-1; CLL1
T1 sequence: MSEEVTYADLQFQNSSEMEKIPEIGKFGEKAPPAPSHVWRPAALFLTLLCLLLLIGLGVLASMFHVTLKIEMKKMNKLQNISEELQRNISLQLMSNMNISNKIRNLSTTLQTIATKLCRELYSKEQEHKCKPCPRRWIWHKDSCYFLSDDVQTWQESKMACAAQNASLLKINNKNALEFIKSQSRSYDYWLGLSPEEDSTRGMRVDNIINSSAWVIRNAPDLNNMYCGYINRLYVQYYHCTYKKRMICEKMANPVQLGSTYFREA
Put plainly: flow cytometry on HEK 293 cells transfected with human CLEC12a; apparent Kd, one-site fit. Here is the method:
(§1) Binding of sdAbs to human CLEC12a was assessed by flow cytometry. […] HEK 293 cells were transiently transfected with a plasmid encoding CLEC12a (UniProt Accession No. Q5QGZ9.3; SEQ ID NO: 1) and used as the positive cell line, and untransfected HEK 293 cells were used as CLEC12a-negative cells. Each cell type was plated at 30,000 cells/well in FACS buffer (PBS 1% BSA, 0.1% NaN₃ pH 7.4) on a 96-well round-bottom plate. The sdAbs were diluted in FACS buffer in a 3-fold, 11 point serial dilution. The sdAb dilutions were added to the plated cells, and assay plates were incubated for 30 minutes at 4° C. After washing twice in 150 μL of FACS buffer, cells in each well were resuspended in 100 μL of 1:2000 Alexa Fluor 647-conjugated Anti-Human IgG secondary diluted in FACS buffer and incubated at 4° C. for 30 minutes. The cells were washed twice more, then bound antibody was detected by flow cytometry.
(§2) Flow cytometric analysis was performed on an Intellicyte iQue Plus and fluorescence was plotted as median fluorescence intensity. The apparent affinity (Kd, nM) was determined using one site binding non-linear regression in PRISM graph software.

Experiment [2] deals with T2, mFc-CLEC12a-ECD (human).
T2 construct: It was immobilized on anti-mFc capture sensors for BLI; also called CLEC12a antigen
T2 chain: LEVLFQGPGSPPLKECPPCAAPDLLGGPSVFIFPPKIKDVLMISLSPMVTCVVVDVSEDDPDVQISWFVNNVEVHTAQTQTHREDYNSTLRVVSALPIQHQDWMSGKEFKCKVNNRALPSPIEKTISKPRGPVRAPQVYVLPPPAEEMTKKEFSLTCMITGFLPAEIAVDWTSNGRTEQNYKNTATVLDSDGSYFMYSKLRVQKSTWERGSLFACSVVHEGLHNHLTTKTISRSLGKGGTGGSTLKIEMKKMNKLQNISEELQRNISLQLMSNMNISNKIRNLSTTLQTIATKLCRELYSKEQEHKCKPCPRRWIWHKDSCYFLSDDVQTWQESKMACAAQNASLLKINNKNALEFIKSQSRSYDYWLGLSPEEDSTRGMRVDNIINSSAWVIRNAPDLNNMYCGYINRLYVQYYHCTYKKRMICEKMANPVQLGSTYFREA
The experiment can be described thus: BLI epitope binning; mFc-CLEC12a-ECD on anti-mFc sensors, 100 nM sdAb. Here is the method:
(§3) The epitopes of single domain antibodies (sdAbs) that comprise VHH domains that bind CLEC12a were compared using Bio-Layer Interferometry. 7 μg/mL of mFc-CLEC12a-ECD (SEQ ID NO: 87) was immobilized on anti-mFc coated capture sensors. 100 nM of one sdAb was then loaded onto the CLEC12a antigen and allowed to come to equilibrium. The sensors were then transferred into 100 nM of a second sdAb.

Experiment [3] addresses T1, human CLEC12a expressed on transiently …. The experiment can be described thus: flow cytometry on HEK 293 cells transiently transfected with human CLEC12a, Alexa Fluor 647 anti-human IgG secondary, median fluorescence. Here is the method: as §1, §2
(In general: Flow cytometry measures light scatter and fluorescence of single cells or particles in a stream.)

Experiment [4] concerns the target T2, mFc-CLEC12a-ECD. Put plainly: BLI, mFc-CLEC12a-ECD on anti-mFc sensors first loaded with 100 nM hzMB11v13, then 100 nM second sdAb. Here is the method:
as §3
For orientation: In BLI a coated tip is dipped into the sample, and binding shifts an interference pattern.

B1: MC02 sdAb (VHH MC02 fused to human IgG1 xELL Fc) (Fc fusion)
chain: QVQLVQSGGGLAQPGGSLRLSCTASGFTFRINDMGWYRQAPGKECEMVAGISNNGFSTAYADSVKGRFTISRDNAKNTVSLQMDSLKSEDTAVYYCHRTDDGAAHACSRGQGTQVTVDKTHTCPPCPAPGGPSVFLFPPKPKDTLMISRTPEVTCVVVDVSHEDPEVKFNWYVDGVEVHNAKTKPREEQYNSTYRVVSVLTVLHQDWLNGKEYKCKVSNKALPAPIEKTISKAKGQPREPQVYTLPPSRDELTKNQVSLTCLVKGFYPSDIAVEWESNGQPENNYKTTPPVLDSDGSFFLYSKLTVDKSRWQQGNVFSCSVMHEALHNHYTQKSLSLSPGK
notes: Camelid parental VHH; No linker is stated; also called MC02-IgG1
Take B1: in experiment [1], the Kd was 0.37 nM.

B2: hzMC02v6 sdAb (VHH hzMC02v6 fused to human IgG1 xELL Fc) (Fc fusion)
chain: EVQLVESGGGEVQPGGSLRLSCAASGFTFRINDMGWYRQAPGKECEMVAGISNNGFSTAYAESVKGRFTISRDNAKNTVYLQMSSLRAEDTAVYYCHRTDEGAAHACSRGQGTLVTVDKTHTCPPCPAPGGPSVFLFPPKPKDTLMISRTPEVTCVVVDVSHEDPEVKFNWYVDGVEVHNAKTKPREEQYNSTYRVVSVLTVLHQDWLNGKEYKCKVSNKALPAPIEKTISKAKGQPREPQVYTLPPSRDELTKNQVSLTCLVKGFYPSDIAVEWESNGQPENNYKTTPPVLDSDGSFFLYSKLTVDKSRWQQGNVFSCSVMHEALHNHYTQKSLSLSPGK
notes: Humanized version of MC02; No linker is stated; also called hzMC02v6-IgG1
On to B2, for which the Kd in experiment [1] was determined as 0.35 nM. For the same molecule, the binding result with mFc-CLEC12a-ECD [2] is listed as “binds”.

B3: MC06 sdAb (VHH MC06 fused to human IgG1 xELL Fc) (Fc fusion)
chain: QVQLQESGGGLVQPGGSLRLSCAASGFTFSVYDMNWYRQTPGKEREWVAGISNNGFSTAYAGSVKGRFTISRDNAENTVYLQMNSLKSEDTAVYYCNLDVHGRVGAQGDYWGQGTQVTVDKTHTCPPCPAPGGPSVFLFPPKPKDTLMISRTPEVTCVVVDVSHEDPEVKFNWYVDGVEVHNAKTKPREEQYNSTYRVVSVLTVLHQDWLNGKEYKCKVSNKALPAPIEKTISKAKGQPREPQVYTLPPSRDELTKNQVSLTCLVKGFYPSDIAVEWESNGQPENNYKTTPPVLDSDGSFFLYSKLTVDKSRWQQGNVFSCSVMHEALHNHYTQKSLSLSPGK
notes: Camelid parental VHH; No linker is stated; also called MC06-IgG1
The EC50 (read off the curve) is the concentration giving half of the maximal effect. A high value points to a less potent agent. B3: the Kd in experiment [1] came to 1.58 nM. Also, in experiment [3], the “EC50 (read off the curve)” value was in the range of 1 to 2 nM.

B4: hzMC06v2 sdAb (VHH hzMC06v2 fused to human IgG1 xELL Fc) (Fc fusion)
chain: EVQLVESGGGEVQPGGSLRLSCAASGFTFSVYDMNWYRQAPGKEREWVSGISNNGFSTAYAESVKGRFTISRDNAKNTLYLQMSSLRAEDTAVYYCNLDVHGRVGAQGDYWGQGTLVTVDKTHTCPPCPAPGGPSVFLFPPKPKDTLMISRTPEVTCVVVDVSHEDPEVKFNWYVDGVEVHNAKTKPREEQYNSTYRVVSVLTVLHQDWLNGKEYKCKVSNKALPAPIEKTISKAKGQPREPQVYTLPPSRDELTKNQVSLTCLVKGFYPSDIAVEWESNGQPENNYKTTPPVLDSDGSFFLYSKLTVDKSRWQQGNVFSCSVMHEALHNHYTQKSLSLSPGK
notes: Humanized version of MC06; No linker is stated; also called hzMC06v2-IgG1
For B4, the Kd in experiment [1] is 14 nM. The “EC50 (read off the curve)” value in experiment [3] was around 10 nM. The binding result with mFc-CLEC12a-ECD [2] is reported as “binds”.

B5: ME02 sdAb (VHH ME02 fused to human IgG1 xELL Fc) (Fc fusion)
chain: QVQLQQSGGGLVQVGGSQRLSCAASGRTFEYDDMVWFRQAPGKEREEVAGISWSGGSIYYADSVKGRFSISRDNAKNTVYLEMNRLKPEDTAVYYCNVGSYWGQGTQVTVDKTHTCPPCPAPGGPSVFLFPPKPKDTLMISRTPEVTCVVVDVSHEDPEVKFNWYVDGVEVHNAKTKPREEQYNSTYRVVSVLTVLHQDWLNGKEYKCKVSNKALPAPIEKTISKAKGQPREPQVYTLPPSRDELTKNQVSLTCLVKGFYPSDIAVEWESNGQPENNYKTTPPVLDSDGSFFLYSKLTVDKSRWQQGNVFSCSVMHEALHNHYTQKSLSLSPGK
notes: Camelid parental VHH; No linker is stated; also called ME02-IgG1
Regarding B5, the Kd in experiment [1] was 1.2 nM. Moreover, the “EC50 (read off the curve)” value in experiment [3] is around 1 nM.

B6: ME06 sdAb (VHH ME06 fused to human IgG1 xELL Fc) (Fc fusion)
chain: QVQLVQSGGGLVQAGGSLRLSCVASGFTFDDYAIGWFRQAPGKEREGVSCISNSDGSTYYADSVKGRFTISSDNAKNTVYLHVNSLNPEDTAVYYCALREGLPLLLDSLWRQPVEYDYWGQGTQVTVDKTHTCPPCPAPGGPSVFLFPPKPKDTLMISRTPEVTCVVVDVSHEDPEVKFNWYVDGVEVHNAKTKPREEQYNSTYRVVSVLTVLHQDWLNGKEYKCKVSNKALPAPIEKTISKAKGQPREPQVYTLPPSRDELTKNQVSLTCLVKGFYPSDIAVEWESNGQPENNYKTTPPVLDSDGSFFLYSKLTVDKSRWQQGNVFSCSVMHEALHNHYTQKSLSLSPGK
notes: Camelid parental VHH; No linker is stated; also called ME06-IgG1
Regarding B6, the Kd in experiment [1] came out at 0.05 nM.

B7: MB11 sdAb (VHH MB11 fused to human IgG1 xELL Fc) (Fc fusion)
chain: QVQLQQSGGGLVQPGGSLRLSCVASGFLFSIYDMNWYRQAPGKEREWIAGITNNGYSTAYTDSVQGRFTISRDNAKNTIYLQMTSLKPEDTAVYYCHADLTKCYDGEYAWGQGTQVTVDKTHTCPPCPAPGGPSVFLFPPKPKDTLMISRTPEVTCVVVDVSHEDPEVKFNWYVDGVEVHNAKTKPREEQYNSTYRVVSVLTVLHQDWLNGKEYKCKVSNKALPAPIEKTISKAKGQPREPQVYTLPPSRDELTKNQVSLTCLVKGFYPSDIAVEWESNGQPENNYKTTPPVLDSDGSFFLYSKLTVDKSRWQQGNVFSCSVMHEALHNHYTQKSLSLSPGK
notes: Camelid parental VHH; No linker between VHH and Fc is stated; Fc dimers are described only in general terms; also called MB11-IgG1
B7: the Kd in experiment [1] turned out to be 58.6 nM. Besides, the “EC50 (read off the curve)” value in experiment [3] is around 50 nM.

B8: MH07 sdAb (VHH MH07 fused to human IgG1 xELL Fc) (Fc fusion)
chain: QVQLVQSGGGLVQPGGSLRLSCVASGLLFSIYDMNWYRQAPGKEREWIAGITNNGYSTAYTDSVQGRFTISRDNAKNTVYLQMNSLKPEDTAVYYCHTDEWGREYWGQGTQVTVDKTHTCPPCPAPGGPSVFLFPPKPKDTLMISRTPEVTCVVVDVSHEDPEVKFNWYVDGVEVHNAKTKPREEQYNSTYRVVSVLTVLHQDWLNGKEYKCKVSNKALPAPIEKTISKAKGQPREPQVYTLPPSRDELTKNQVSLTCLVKGFYPSDIAVEWESNGQPENNYKTTPPVLDSDGSFFLYSKLTVDKSRWQQGNVFSCSVMHEALHNHYTQKSLSLSPGK
notes: Camelid parental VHH; No linker is stated; also called MH07-IgG1
B8: in experiment [1], the Kd was found to be 0.1 nM.

B9: hzMH07v3 sdAb (VHH hzMH07v3 fused to human IgG1 xELL Fc) (Fc fusion)
chain: EVQLVESGGGEVQPGGSLRLSCAASGLLFSIYDMNWYRQAPGKEREWVAGITNNGYSTAYAESVKGRFTISRDNAKNTVYLQMSSLRAEDTAVYYCHTDEWGREYWGQGTLVTVDKTHTCPPCPAPGGPSVFLFPPKPKDTLMISRTPEVTCVVVDVSHEDPEVKFNWYVDGVEVHNAKTKPREEQYNSTYRVVSVLTVLHQDWLNGKEYKCKVSNKALPAPIEKTISKAKGQPREPQVYTLPPSRDELTKNQVSLTCLVKGFYPSDIAVEWESNGQPENNYKTTPPVLDSDGSFFLYSKLTVDKSRWQQGNVFSCSVMHEALHNHYTQKSLSLSPGK
notes: Humanized version of MH07; No linker is stated; also called hzMH07v3-IgG1; haMH07v3
For B9, the Kd in experiment [1] stood at 0.28 nM. The binding result with mFc-CLEC12a-ECD [2] was “binds”.

B10: hzME06v16 sdAb (VHH hzME06v16 fused to human IgG1 xELL Fc) (Fc fusion)
chain: EVQLVESGGGEVQPGGSLRLSCAASGFTFDDYAIGWFRQAPGKEREGVSTISSSDGSTYYAESVKGRFTISRDNAKNTVYLQMSSLRAEDTAVYYCALREGLPLLLDTLWRQPVEYDYWGQGTQVTVDKTHTCPPCPAPGGPSVFLFPPKPKDTLMISRTPEVTCVVVDVSHEDPEVKFNWYVDGVEVHNAKTKPREEQYNSTYRVVSVLTVLHQDWLNGKEYKCKVSNKALPAPIEKTISKAKGQPREPQVYTLPPSRDELTKNQVSLTCLVKGFYPSDIAVEWESNGQPENNYKTTPPVLDSDGSFFLYSKLTVDKSRWQQGNVFSCSVMHEALHNHYTQKSLSLSPGK
notes: Humanized version of ME06; No linker is stated; also called hzME06v16-IgG1
Regarding B10, in experiment [1], the Kd worked out at 0.06 nM. Moreover, in the experiment with mFc-CLEC12a-ECD [4], the binding result is given as “binds”.

The values are drawn from patent US20200347139A1 (INHIBRX BIOSCIENCES, published 2020).
